The values that follow come from publication PMC12416549 (2024).

Substitutions are numbered along the chain they refer to. In names and notes the source's numbering stands.

The assay has as its target T1, TNFR1 (Homo sapiens, UniProt P19438).
T1 chain: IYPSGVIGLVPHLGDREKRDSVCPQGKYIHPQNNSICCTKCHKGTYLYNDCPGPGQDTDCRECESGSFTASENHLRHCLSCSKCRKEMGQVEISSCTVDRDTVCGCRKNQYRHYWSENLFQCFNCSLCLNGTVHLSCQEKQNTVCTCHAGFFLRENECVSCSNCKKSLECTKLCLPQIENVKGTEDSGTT
Briefly: yeast display SC50.

B1: W70D (designed binder)
chain: MTLQELLREEALRRAEAEAFRYALELLAEKFPEQKEYLLDLAEEIESQIRSLSGVDVEDVRKFLDKEWADVKELLAEHPAELAEVEAARAARLAELRAEVEAKVAA
Turning to B1, the “apparent Kd (screen)” value was 12.5 nM.

B2: G54T (designed binder)
chain: B1 chain with G54T, D70W
In the case of B2, the “apparent Kd (screen)” value was 0.446 nM.

B3: V104N (designed binder)
chain: B1 chain with D70W, V104N
As to B3, the “apparent Kd (screen)” value turned out to be 0.593 nM.

B4: R14K (designed binder)
chain: B1 chain with R14K, D70W
For B4, the “apparent Kd (screen)” value was found to be 0.49 nM.

B5: E33H (designed binder)
chain: B1 chain with E33H, D70W
As to B5, the “apparent Kd (screen)” value worked out at 0.49 nM.

B6: K62T (designed binder)
chain: B1 chain with K62T, D70W
For the molecule B6, the “apparent Kd (screen)” value is 0.539 nM.

B7: E99V (designed binder)
chain: B1 chain with D70W, E99V
For B7, the “apparent Kd (screen)” value amounted to 0.446 nM.

B8: A105K (designed binder)
chain: B1 chain with D70W, A105K
Consider B8, for which the “apparent Kd (screen)” value came out at 0.869 nM.

B9: V85P (designed binder)
chain: B1 chain with D70W, V85P
Consider B9, for which the “apparent Kd (screen)” value came out at 2.25 nM.

B10: L6K (designed binder)
chain: B1 chain with L6K, D70W
In the case of B10, the “apparent Kd (screen)” value was determined as 7.07 nM.

B11: D59V (designed binder)
chain: B1 chain with D59V, D70W
For the molecule B11, the “apparent Kd (screen)” value came out at 0.653 nM.

B12: H78N (designed binder)
chain: B1 chain with D70W, H78N
As to B12, the “apparent Kd (screen)” value was 0.539 nM.

B13: L75I (designed binder)
chain: B1 chain with D70W, L75I
Regarding B13, the “apparent Kd (screen)” value stood at 0.79 nM.

B14: F20M (designed binder)
chain: B1 chain with F20M, D70W
B14: the “apparent Kd (screen)” value was 0.869 nM.

B15: W70H (designed binder)
chain: B1 chain with D70H
For B15, the “apparent Kd (screen)” value was 12.5 nM.

B16: R61Q (designed binder)
chain: B1 chain with R61Q, D70W
For the molecule B16, the “apparent Kd (screen)” value was determined as 0.539 nM.

B17: A28Y (designed binder)
chain: B1 chain with A28Y, D70W
Consider B17, for which the “apparent Kd (screen)” value was 22.2 nM.

B18: L26M (designed binder)
chain: B1 chain with L26M, D70W
Take B18: the “apparent Kd (screen)” value was 0.593 nM.

B19: L26K (designed binder)
chain: B1 chain with L26K, D70W
Consider B19, for which the “apparent Kd (screen)” value was 0.718 nM.

B20: L26D (designed binder)
chain: B1 chain with L26D, D70W
With B20, the “apparent Kd (screen)” value worked out at 0.956 nM.

B21: W70T (designed binder)
chain: B1 chain with D70T
As for B21, the “apparent Kd (screen)” value was found to be 29.5 nM.

B22: S47L (designed binder)
chain: B1 chain with S47L, D70W
With B22, the “apparent Kd (screen)” value is 0.653 nM.

B23: K35G (designed binder)
chain: B1 chain with K35G, D70W
B23: the “apparent Kd (screen)” value stood at 0.49 nM.

B24: F63D (designed binder)
chain: B1 chain with F63D, D70W
As to B24, the “apparent Kd (screen)” value was determined as 7.07 nM.

B25: W70P (designed binder)
chain: B1 chain with D70P
B25: the “apparent Kd (screen)” value turned out to be 11.4 nM.

B26: L39Y (designed binder)
chain: B1 chain with L39Y, D70W
Take B26: the “apparent Kd (screen)” value was found to be 1.69 nM.

B27: E99S (designed binder)
chain: B1 chain with D70W, E99S
Consider B27, for which the “apparent Kd (screen)” value was found to be 0.956 nM.

B28: A42W (designed binder)
chain: B1 chain with A42W, D70W
B28: the “apparent Kd (screen)” value came to 4.83 nM.

B29: E73G (designed binder)
chain: B1 chain with D70W, E73G
B29: the “apparent Kd (screen)” value came to 0.718 nM.

B30: A83G (designed binder)
chain: B1 chain with D70W, A83G
On to B30, for which the “apparent Kd (screen)” value turned out to be 0.539 nM.

B31: A80F (designed binder)
chain: B1 chain with D70W, A80F
For B31, the “apparent Kd (screen)” value was 0.539 nM.

B32: W70K (designed binder)
chain: B1 chain with D70K
With B32, the “apparent Kd (screen)” value was 5.84 nM.

B33: E67R (designed binder)
chain: B1 chain with E67R, D70W
Consider B33, for which the “apparent Kd (screen)” value came to 8.56 nM.

B34: S47C (designed binder)
chain: B1 chain with S47C, D70W
Turning to B34, the “apparent Kd (screen)” value amounted to 0.718 nM.

B35: L41G (designed binder)
chain: B1 chain with L41G, D70W
For the molecule B35, the “apparent Kd (screen)” value is 12.5 nM.

B36: A106V (designed binder)
chain: B1 chain with D70W, A106V
For the molecule B36, the “apparent Kd (screen)” value was 0.653 nM.

B37: D65M (designed binder)
chain: B1 chain with D65M, D70W
Take B37: the “apparent Kd (screen)” value was found to be 0.718 nM.

B38: E58M (designed binder)
chain: B1 chain with E58M, D70W
In the case of B38, the “apparent Kd (screen)” value was found to be 0.49 nM.

B39: A94T (designed binder)
chain: B1 chain with D70W, A94T
Consider B39, for which the “apparent Kd (screen)” value was 0.539 nM.

B40: S51G (designed binder)
chain: B1 chain with S51G, D70W
With B40, the “apparent Kd (screen)” value turned out to be 1.69 nM.

B41: E29Q (designed binder)
chain: B1 chain with E29Q, D70W
For the molecule B41, the “apparent Kd (screen)” value worked out at 0.539 nM.

B42: L26F (designed binder)
chain: B1 chain with L26F, D70W
Turning to B42, the “apparent Kd (screen)” value amounted to 0.593 nM.

B43: L64P (designed binder)
chain: B1 chain with L64P, D70W
Regarding B43, the “apparent Kd (screen)” value is 3.99 nM.

B44: E46H (designed binder)
chain: B1 chain with E46H, D70W
For B44, the “apparent Kd (screen)” value was 0.539 nM.

B45: V55P (designed binder)
chain: B1 chain with V55P, D70W
For the molecule B45, the “apparent Kd (screen)” value turned out to be 0.653 nM.

B46: A91T (designed binder)
chain: B1 chain with D70W, A91T
Turning to B46, the “apparent Kd (screen)” value worked out at 0.593 nM.

B47: G54W (designed binder)
chain: B1 chain with G54W, D70W
Consider B47, for which the “apparent Kd (screen)” value is 2.73 nM.

B48: Q48G (designed binder)
chain: B1 chain with Q48G, D70W
B48: the “apparent Kd (screen)” value came to 0.718 nM.

B49: Q34V (designed binder)
chain: B1 chain with Q34V, D70W
For B49, the “apparent Kd (screen)” value came out at 0.405 nM.

B50: Y22G (designed binder)
chain: B1 chain with Y22G, D70W
Consider B50, for which the “apparent Kd (screen)” value was 0.653 nM.

B51: E36V (designed binder)
chain: B1 chain with E36V, D70W
Take B51: the “apparent Kd (screen)” value came to 1.05 nM.

B52: V104Q (designed binder)
chain: B1 chain with D70W, V104Q
With B52, the “apparent Kd (screen)” value is 0.49 nM.

B53: A83C (designed binder)
chain: B1 chain with D70W, A83C
On to B53, for which the “apparent Kd (screen)” value was determined as 0.869 nM.

B54: L12C (designed binder)
chain: B1 chain with L12C, D70W
For the molecule B54, the “apparent Kd (screen)” value was found to be 0.79 nM.

B55: L7Y (designed binder)
chain: B1 chain with L7Y, D70W
In the case of B55, the “apparent Kd (screen)” value is 12.5 nM.
